Measured values reported in patent CN109021107A (JIANGSU RUONAIBO BIOLOGY MEDICAL TECH CO LTD, dated 2018).
Positions count from the first letter of the chain named.

Legend:
[1] = biological target: T1, PD-L1 on PD-L1 overexpressing cells (human, UniProt Q9NZQ7 19-290); experiment: cell binding, PD-L1 overexpressing cells, anti-human-IgG-Eu fluorescence
T1 construct: whole, on cells; also called PD-L1过表达细胞; PD-L1稳定过表达CHO细胞株

[2] = biological target: T1, PD-L1 on PD-L1 overexpressing cells; experiment: inhibition of biotinylated PD1 binding to PD-L1 overexpressing cells, Eu-streptavidin
[3] = biological target: T2, recombinant PD-L1-Fc protein (human, UniProt Q9NZQ7 19-238, limits assumed); experiment: competition ELISA, coated PD-L1-Fc, competitor biotinylated PD1 0.5ug/ml
T2 construct: also called 重组PD-L1-Fc蛋白; PD-L1重组蛋白; not shown: Fc part

[4] = biological target: T3, recombinant PD-L1-His protein (human, UniProt Q9NZQ7 19-238); experiment: SPR, BIAcore T200, antibody captured by goat anti-human IgG on CM5 chip, 300nM PD-L1-HIS as analyte
T3 construct: also called 重组PD-L1-HIS蛋白; PD-L1蛋白; not shown: His tag

[5] = biological target: T4, recombinant human B7-1 (human, UniProt P33681 35-242, limits assumed); experiment: ELISA, coated recombinant protein, anti-human IgG-HRP
T4 construct: also called 人B7-1
T4 sequence (looked up): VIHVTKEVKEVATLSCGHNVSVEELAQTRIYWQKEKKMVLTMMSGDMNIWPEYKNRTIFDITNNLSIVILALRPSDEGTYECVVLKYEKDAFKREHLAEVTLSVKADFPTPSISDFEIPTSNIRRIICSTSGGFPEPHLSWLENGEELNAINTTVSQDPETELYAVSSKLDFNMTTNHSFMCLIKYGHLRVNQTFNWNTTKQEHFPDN

[6] = biological target: T5, recombinant human B7-2 (human, UniProt P42081 24-247, limits assumed); experiment: as above
T5 construct: also called 人B7-2
T5 sequence (looked up): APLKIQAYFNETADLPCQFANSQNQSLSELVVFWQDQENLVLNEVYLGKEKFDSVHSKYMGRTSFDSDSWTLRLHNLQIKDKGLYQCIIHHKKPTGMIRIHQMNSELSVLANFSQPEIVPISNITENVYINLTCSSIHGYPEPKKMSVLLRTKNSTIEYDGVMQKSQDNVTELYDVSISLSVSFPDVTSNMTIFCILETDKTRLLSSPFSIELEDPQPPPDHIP

[7] = biological target: T6, recombinant human PDL2 (human, UniProt Q9BQ51 20-220, limits assumed); experiment: as above
T6 construct: also called 人PDL2
T6 sequence (looked up): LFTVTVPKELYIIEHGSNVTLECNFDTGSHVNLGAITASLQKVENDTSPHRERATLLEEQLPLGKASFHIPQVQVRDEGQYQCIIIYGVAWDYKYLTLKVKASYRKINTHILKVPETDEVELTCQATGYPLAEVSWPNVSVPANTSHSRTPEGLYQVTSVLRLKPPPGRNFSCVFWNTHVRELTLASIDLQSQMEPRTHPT

[8] = biological target: T1, PD-L1 on PD-L1 overexpressing cells; experiment: cell-based or functional assay
[9] = biological target: T3, recombinant PD-L1-His protein; experiment: ELISA, coated PD-L1-HIS, donkey anti-human IgG-HRP
[10] = biological target: T3, recombinant PD-L1-His protein; experiment: hybridoma supernatant screen, ELISA on coated PD-L1-His
[11] = biological target: T1, PD-L1 on PD-L1 overexpressing cells; experiment: phage cell-binding ELISA on PD-L1 overexpressing cells, anti-M13-HRP

T3 sequence (Q9NZQ7 19-238 limits assumed): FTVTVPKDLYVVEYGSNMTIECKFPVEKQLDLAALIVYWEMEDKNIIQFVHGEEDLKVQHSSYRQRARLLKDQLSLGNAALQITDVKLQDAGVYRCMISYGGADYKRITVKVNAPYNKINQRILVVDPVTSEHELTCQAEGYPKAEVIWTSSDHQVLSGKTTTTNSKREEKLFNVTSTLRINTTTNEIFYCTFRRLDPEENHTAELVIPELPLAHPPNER
T1 sequence (Q9NZQ7 19-290): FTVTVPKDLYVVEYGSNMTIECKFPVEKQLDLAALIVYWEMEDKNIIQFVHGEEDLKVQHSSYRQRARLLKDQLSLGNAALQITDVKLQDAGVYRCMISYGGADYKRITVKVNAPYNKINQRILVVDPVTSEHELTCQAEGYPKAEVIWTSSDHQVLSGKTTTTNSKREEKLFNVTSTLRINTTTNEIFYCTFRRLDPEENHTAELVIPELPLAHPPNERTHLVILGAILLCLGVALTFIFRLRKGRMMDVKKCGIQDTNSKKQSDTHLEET
T2 sequence (Q9NZQ7 19-238 limits assumed): as the sequence (Q9NZQ7 19-238 limits assumed) above

B1: HUL01 (antibody, human IgG1, kappa, N297A, V domains shown)
VH: EVQLQESGPGLVKPSQTLSLTCTVSGDSFSSGYWNWIRQHPGKGLEYIGYVSYTGSTYYIPSLKSRVTISRDTSKNQFSLKLSSVTAADTAVYYCAGYRDWLHGYFDYWGQGTTVTVSS
VL: DIQMTQSPSSLSASVGDRVTITCKASQNVGTNVAWYQQKPGKAPKRLIYSASYRFSGVPSRFSGSGSGTEFTLTISSLQPEDFATYYCQQYNGYPLTFGQGTKLEIKR
notes: expressed in 293C18 cells, Protein A purified; also called clone1; clone2
[1]
  EC50: 0.13 µg/mL
[2]
  IC50: 0.228 µg/mL
[3]
  IC50: 0.117 µg/mL

B2: HUL02 (antibody, human IgG1, kappa, N297A, V domains shown)
VH: B1 VH
VL: B1 VL with G30M, T31D
notes: also called clone4; PD-L1抗体HUL02
[1]
  EC50: 0.0695 µg/mL
[2]
  IC50: 0.115 µg/mL
[4]
  Kd: 0.17 nM
[3]
  IC50: 0.0716 µg/mL
[5]
  binding result: no binding (tested: 1ug/ml)
[6]
  binding result: no binding (tested: 1ug/ml)
[7]
  binding result: no binding (tested: 1ug/ml)
[8]
  刺激T淋巴细胞IL-2分泌的EC50 (MLR, CD4+ T cells and DC): 0.062 µg/mL
[9]
  EC50: 0.0206 µg/mL

B3: murine monoclonal antibody specifically binding PD-L1 (hybridoma clone of Example 1) (antibody, V domains shown)
VH: EVQLQESGPSLVQPSQTLSLTCSVTGDSFTSGYWNWIRKFPDNKLQYMGYVSYTGSTYYIPSLKSRISITRDTSKNQYFLQLNSVTSEDTATYFCAGYRDWLHGYFDYWGQGTTLTVSS
VL: DIVMTQSQKFMSTSIGDRVSVTCKASQNVGTNVAWYQLKPGQSPKALIYSASYRFSGVPDRFTGSGSGTEFTLTITNVQSEDLTDYFCQQYNGYPLTFGAGTKLEVK
notes: Mouse IgG from hybridoma supernatant; also called 鼠源特异性结合PD-L1单克隆抗体; 鼠源抗体
[10]
  binding result: binds

B4: HUL01 scFv displayed on phage (scFv)
scFv: EVQLQESGPGLVKPSQTLSLTCTVSGDSFSSGYWNWIRQHPGKGLEYIGYVSYTGSTYYIPSLKSRVTISRDTSKNQFSLKLSSVTAADTAVYYCAGYRDWLHGYFDYWGQGTTVTVSSGGGGSGGGGSGGGGSDIQMTQSPSSLSASVGDRVTITCKASQNVGTNVAWYQQKPGKAPKRLIYSASYRFSGVPSRFSGSGSGTEFTLTISSLQPEDFATYYCQQYNGYPLTFGQGTKLEIK
notes: also called clone1; clone2
[11]
  binding result: binds

B5: HUL02 scFv displayed on phage (scFv)
scFv: B4 scFv with G164M, T165D
notes: Phage clone from the library built on the HUL01 scFv template; also called clone4
[11]
  binding result: binds
